Test results: patent US7670806B2, “ADP-ribosyl acceptor hydrolase 3 (ARH3) polypeptides and methods of use” (The United States of America as represented by the …, priority 2005, dated 2010)

Assays:
[1] = Hydrolysis of O-acetyl-[14C]ADP-ribose by ARH proteins / PARG (RP-HPLC); format: biochemical; details: 1.5 pmol wild type or mutant human ARH3 or 20 mU PARG, 2 h at 30° C.; mouse ARH1, 2, 3
Method: FIG. 13A is a graph illustrating the results from incubation of 1.5 pmol of mouse ARH3 with or without 5 mM DTT and/or 10 mM MgCl2 as described in FIG. 11B with incubation for 1 h at 30° C. FIG. 13B is a graph illustrating the results from incubation of 1.5 pmol of wild type or mutant human (D77-78) ARH3 or 20 mU of PARG for 2 h at 30° C. *D77,78, assays incubated with 15 pmol of mutant human ARH3 (D77, D78).
FIG. 14A is a graph of the results from incubation with the indicated amount of mouse ARH1, 2, or 3 for 2 h at 30° C. FIG. 14B is a graph of the results from incubation with 230 pmol of mouse ARH1 at 30° C. for the indicated time.
Mouse ARH3 (2 pmol) and 2.5 μM O-acetyl-[^14C]ADP-ribose (5,000 cpm) in 200 μl of buffer containing 50 mM potassium phosphate (pH 7.0), 10 mM MgCl2 and 5 mM DTT were incubated for 2 h at 30° C., before separation of substrate and products using RP-HPLC as described below.
Hydrolysis of O-acetyl-[^14C]ADP-ribose catalyzed by ARH3. Assays containing the indicated concentration of O-acetyl-[^14C]-ADP-ribose (0.1 to 2 nmol, 1,000 to 20,000 cpm) and 1.5 pmol of ARH3 in 200 μl of buffer (50 mM KPO4 (pH 7.0), 10 mM MgCl2, 5 mM DTT) were incubated at 30° C. for 20 min. Substrate and products were separated using RP-HPLC. Amounts of product were corrected for ADP-ribose produced in the absence of ARH3 before calculation of hydrolysis rates.
Because O-acetyl-ADP-ribose was known to be hydrolyzed at alkaline pH Tanny and Moazed (2001), Proc Natl Acad Sci USA. 98(2):415-20, Epub Dec. 26, 2000), it was generated at pH 7.0 in the presence of [^14C-adenine] β-NAD, Sir2, and acetylated histone H3 peptide (FIG. 11A), and the products of Sir2 and ARH3 were analyzed using reverse-phase HPLC at the same pH (FIGS. 11A,B). The products of the ARH3-catalyzed reaction were also analyzed by high resolution-polyacrylamide gel electrophoresis (FIG. 11C). O-acetyl-[^14C]ADP-ribose hydrolase activity was time and ARH3 dependent (FIG. 12) and essentially completely dependent on Mg^2+ (FIG. 13A).
O-acetyl-ADP-ribose hydrolysis by ARH1 was time and ARH1 dependent (FIG. 14b).

[2] = Poly(ADP-ribose) hydrolysis (autoradiography, high resolution PAGE, HPLC); format: biochemical; details: for Poly(ADP-ribose) hydrolysis (in words): [32P]poly(ADP-ribose) or poly(ADP-ribose)PARP, 37° C., autoradiography / PAGE / HPLC; for Release of [14C]ADP-ribose from [14C]poly(ADP-ribose)PARP relative to wild-type ARH3: 50 nM human ARH3 (wild-type or mutant), ~2 μM ADP-ribose, HPLC C18
Method: Poly(ADP-ribose) hydrolysis by autoradiography. [^32P]poly(ADP-ribose)PARP (500 ng of PARP with poly(ADP-ribose) was incubated (37° C., 2 h) with 2 μM ARH in 25 μl of 50 mM potassium phosphate buffer, pH 7.5, with or without 10 mM MgCl2 and/or 5 mM DTT. Reactions were stopped by adding 6 μl of 5× Laemmli buffer. Samples (20 μl) of proteins were separated by SDS-PAGE in 4-20% gels and transferred to nitrocellulose membranes that were exposed to X-ray film (Kodak) for 10 h.
Hydrolysis of poly(ADP-ribose) by PARG and ARH3. Purified [^32P] poly(ADP-ribose) (5.5×10^5 cpm, ˜300 nM ADP-ribose) was incubated for the indicated time at 37° C. in 25 μl of 50 mM potassium phosphate, pH 7.5, containing 10 mM MgCl2 and 5 mM DTT with enzyme or other additions as indicated and terminated by addition of 25 μl of 2× electrophoresis buffer (Invitrogen). [^32P]AMP was generated by incubation (37° C., 3 h) of 10 μM [^32P] NAD (10 μCi/reaction) with pyrophosphatase (40 units/mg from SIGMA, 1 mg/ml) in 25 μl of 50 mM KPO4, pH 7.5, and 10 mM MgCl2. [^32P] ADP-ribose was generated in a 25 μl mixture containing 50 mM KPO4, pH 7.5, 25 μg of activated CTA, 10 μM [^32P] NAD (10 μCi/reaction), 10 mM MgCl2, and 5 mM DTT, which was incubated at 30° C. overnight. [^32P] phosphoribosyl-AMP was generated by incubation (37° C., 3 h) of [^32P]poly(ADP-ribose) (5.5×10^5 cpm, ˜300 nM ADP-ribose) with Crotalus adamanteus phosphodiesterase (10 mU/reaction), 25 μl of 50 mM KPO4, pH 7.5, 10 mM MgCl2, and 5 mM DTT. Identities of AMP and ADP-ribose standards were confirmed by HPLC on C18 and SAX columns respectively.
High resolution Polyacrylamide Gel Electrophoresis (PAGE). Polyacrylamide (20%) gels (20×20×0.15 cm) containing polyacrylamide and bis(acrylamide), in a ratio of 19:1, 100 mM Tris-borate, pH 8.3, 2 mM EDTA, 4.4 mM ammonium persulfate, and 3.4 mM TEMED with electrophoresis carried out for 2 h at 400V with 50 mM Tris-borate, pH 8.3, 1 mM EDTA, before application of samples (15 μl) were used for analysis of poly(ADP-ribose) degradation. Subsequent electrophoresis at 400V was stopped when bromophenol blue (BPB) had moved 9 cm from the origin. Gels were exposed to X-ray films (Kodak).
HPLC analysis. HPLC, Hewlett-Packard series 1100 equipped with a diode-array spectrophotometric detector set at 254 nm, was used for separation of reaction products. For anion exchange perfusion chromatography, Zorbax SAX column (4.6×250 mm; DuPont, Wilmington Del.) was washed with 20 mM potassium phosphate, pH 4.5, for 30 min, followed by a linear gradient of 0-1M NaCl in the same buffer for 10 min (30-40 min), then same buffer with 1M NaCl for 10 min (40-50 min) at a flow rate of 1 ml/min. Nicotinamide was eluted at 3 min, NAD at 10 min, and ADP-ribose at 40 min. For reverse phase, Discovery C18 column (4.6×250 mm; SUPELCO, Bellefonte Pa.) was used. Samples were separated isocratically with 100 mM potassium phosphate, pH 6.0 containing 7% methanol at a same flow rate of 1 ml/min. ADP-ribose was eluted at 6 min, NAD at 8 min, nicotinamide 9 min.
Poly(ADP-ribose)PARP was used as substrate to assay potential poly(ADP-ribose) hydrolase activities of recombinant ARH1, 2 or 3. Products were identified by autoradiography and HPLC. Fractions (1 ml) were collected for liquid scintillation counting to quantify [^14C]ADP-ribose, which was eluted in fractions from 34 min to 43 min. Because ARH1 activity may require both DTT and Mg^2+, depending on species (Takada et al. (1993) J. Biol. Chem. 268:17837-17843; Moss et al. (1992) J. Biol. Chem. 267:10481-10488), these reactions were performed with or without 10 mM MgCl2, and/or 5 mM DTT. […] Degradation of [^32P]poly(ADP-ribose) by ARH3 was enhanced by 10 mM MgCl2 (FIG. 4A). Data were similar with mouse ARH3.
Samples of [^14C] ADP-ribosylated PARP (250 ng, 15,000 cpm, ˜850 nM ADP-ribose) were incubated at 37° C. (total volume, 100 μl) with human ARH3 as indicated. […]

Molecule	O-acetyl-ADP-ribose hydrolysis (in words) [1]	Poly(ADP-ribose) hydrolysis (in words) [2]	Release of [14C]ADP-ribose from [14C]poly(ADP-ribose)PARP relative to wild-type ARH3 [2]
ARH2: recombinant mouse or human ARH2, structurally related 39-kDa ADP-ribose-binding protein (protein, listed as Homo sapiens) MEKFKAAMLLGSVGDALGYRNVCKENSTVGMKIQEELQRSGGLDHLVLSPGEWPVSDNTIMHIATAEALTTDYWCLDDLYREMVRCYVEIVEKLPERRPDPATIEGCAQLKPNNYLLAWHTPFNEKGSGFGAATKAMCIGLRYWKPERLETLIEVSVECGRMTHNHPTGFLGSLCTALFVSFAAQGKPLVQWGRDMLRAVPLAEEYCRKTIRHTAEYQEHWFYFEAKWQFYLEERKISKDSENKAIFPDNYDAEEREKTYRKWSSEGRGGRRGHDAPMIAYDALLAAGNSWTELCHRAMFHGGESAATGTIAGCLFGLLYGLDLVPKGLYQDLEDKEKLEDLGAALYRLSTEEK	appeared to be inactive	did not	
mouse ARH3: murine ARH3 amino acid sequence SEQ ID NO: 6 (protein, listed as Mus musculus) MAVAAAAAATAMSAAGGGGASAARSISRFRGCLAGALLGDCVGAVYEAHDTVSLASVLSHVESLEPDPGTPGSARTETLYYTDDTAMTRALVQSLLAKEAFDEVDMAHRFAQEYKKDPDRGYGAGVITVFKKLLNPKCRDVYEPARAQFNGKGSYGNGGAMRVAGISLAYSSVQDVQKFARLSAQLTHASSLGYNGAILQALAVHLALQGVSSSEHFLEQLLGHMEELEGDAQSVLDAKELGMEERPYSSRLKKVGELLDQDVVSREEVVSELGNGIAAFESVPTAIYCFLRCMEPHPEIPSTFNSLQRTLIYSISLGGDTDTIATMAGAIAGAYYGMEQVPESWQQSCEGFEETDVLAQSLHRVFQESS		similar	
ARH3 (E261Q/E262Q): human ARH3 mutant E261Q/E262Q (SEQ ID NO: 3) (protein, listed as Homo sapiens) MAAAAMAAAAGGGAGAARSLSRFRGCLAGALLGDCVGSFYEAHDTVDLTSVLRHVQSLEPDPGTPGSERTEALYYTDDTAMARALVQSLLAKEAFDEVDMAHRFAQEYKKDPDRGYGAGVVTVFKKLLNPKCRDVFEPARAQFNGKGSYGNGGAMRVAGISLAYSSVQDVQKFARLSAQLTHASSLGYNGAILQALAVHLALQGESSSEHFLKQLLGHMEDLEGDAQSVLDARELGMEERPYSSRLKKIGELLDQASVTRQQVVSELGNGIAAFESVPTAIYCFLRCMEPDPEIPSAFNSLQRTLIYSISLGGDTDTIATMAGAIAGAYYGMDQVPESWQQSCEGYEETDILAQSLHRVFQKS	rate similar to wild type	catalytic activities similar to that of the wild-type enzyme	~98%
ARH3 (E238Q/E239Q): human ARH3 mutant E238Q/E239Q (SEQ ID NO: 4) (protein, listed as Homo sapiens) MAAAAMAAAAGGGAGAARSLSRFRGCLAGALLGDCVGSFYEAHDTVDLTSVLRHVQSLEPDPGTPGSERTEALYYTDDTAMARALVQSLLAKEAFDEVDMAHRFAQEYKKDPDRGYGAGVVTVFKKLLNPKCRDVFEPARAQFNGKGSYGNGGAMRVAGISLAYSSVQDVQKFARLSAQLTHASSLGYNGAILQALAVHLALQGESSSEHFLKQLLGHMEDLEGDAQSVLDARELGMQQRPYSSRLKKIGELLDQASVTREEVVSELGNGIAAFESVPTAIYCFLRCMEPDPEIPSAFNSLQRTLIYSISLGGDTDTIATMAGAIAGAYYGMDQVPESWQQSCEGYEETDILAQSLHRVFQKS	rate similar to wild type	catalytic activities similar to that of the wild-type enzyme	~97%
